According to publication PMC11721465:
Blank lines part the entries; values can stand above or below the substance they belong to.

Columns and labels:
[1] = biological target: TREM2 (19–134) F74D, biotinylated (human) (UniProt Q9NZC2); assay: BLI; biotinylated TREM2 WT or variant immobilised on SA biosensors; C1q 62.5–1000 nM; PBS with 0.1% BSA and 0.005% Tween-20; 1:1 kinetic fits
[2] = biological target: TREM2 (19–134) L71D, biotinylated (human) (UniProt Q9NZC2); assay: as above
[3] = biological target: TREM2 (19–134) L75D, biotinylated (human) (UniProt Q9NZC2); assay: as above
Chain of TREM2 (19–134) L75D, biotinylated (human) (Q9NZC2 19-134 L75D): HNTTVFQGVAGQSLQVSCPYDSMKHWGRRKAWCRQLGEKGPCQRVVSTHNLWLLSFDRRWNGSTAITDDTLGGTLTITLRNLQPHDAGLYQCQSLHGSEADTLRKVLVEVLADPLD

[4] = biological target: TREM2 (19–134) M41D, biotinylated (human) (UniProt Q9NZC2); assay: as above
Chain of TREM2 (19–134) M41D, biotinylated (human) (Q9NZC2 19-134 M41D): as the sequence (Q9NZC2 19-134 L75D) above, with M23D, D57L counted along it

[5] = biological target: TREM2 (19–134) R122D/K123D, biotinylated (human) (UniProt Q9NZC2); assay: as above
Chain of TREM2 (19–134) R122D/K123D, biotinylated (human) (Q9NZC2 19-134 R122D/K123D): as the sequence (Q9NZC2 19-134 L75D) above, with D57L, R104D, K105D counted along it

[6] = biological target: TREM2 (19–134) R47H, biotinylated (human) (UniProt Q9NZC2); assay: as above
Chain of TREM2 (19–134) R47H, biotinylated (human) (Q9NZC2 19-134 R47H): as the sequence (Q9NZC2 19-134 L75D) above, with R29H, D57L counted along it

[7] = biological target: TREM2 (19–134) R62H, biotinylated (human) (UniProt Q9NZC2); assay: as above
Chain of TREM2 (19–134) R62H, biotinylated (human) (Q9NZC2 19-134 R62H): as the sequence (Q9NZC2 19-134 L75D) above, with R44H, D57L counted along it

[8] = biological target: TREM2 (19–134) R76D, biotinylated (human) (UniProt Q9NZC2); assay: as above
Chain of TREM2 (19–134) R76D, biotinylated (human) (Q9NZC2 19-134 R76D): as the sequence (Q9NZC2 19-134 L75D) above, with D57L, R58D counted along it

[9] = biological target: TREM2 (19–134) T85D, biotinylated (human) (UniProt Q9NZC2); assay: as above
Chain of TREM2 (19–134) T85D, biotinylated (human) (Q9NZC2 19-134 T85D): as the sequence (Q9NZC2 19-134 L75D) above, with D57L, T67D counted along it

[10] = biological target: TREM2 (19–134) WT, biotinylated (human) (UniProt Q9NZC2); assay: as above
Chain of TREM2 (19–134) WT, biotinylated (human) (Q9NZC2 19-134): as the sequence (Q9NZC2 19-134 L75D) above, with D57L counted along it

[11] = biological target: TREM2 (19–134) WT, biotinylated (human) (UniProt Q9NZC2); assay: BLI; sequential competition: biotinylated TREM2 WT on SA biosensors dipped into a first ligand or no ligand, then buffer, then a second ligand; binding of the second ligand = response at end minus beginning of Association 2
C1q (Homo sapiens) = C1q (Homo sapiens) (UniProt P02745); details: cited from earlier work
Chain of C1q (Homo sapiens) (P02745 23-245, chain 1 of 3): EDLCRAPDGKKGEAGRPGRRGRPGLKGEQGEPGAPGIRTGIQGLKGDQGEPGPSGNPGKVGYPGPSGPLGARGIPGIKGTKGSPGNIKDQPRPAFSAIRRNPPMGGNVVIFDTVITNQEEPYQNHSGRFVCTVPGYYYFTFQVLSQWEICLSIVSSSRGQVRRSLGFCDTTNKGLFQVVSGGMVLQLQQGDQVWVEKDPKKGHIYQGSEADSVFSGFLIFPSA
Chain of C1q (Homo sapiens) (P02746 28-253, chain 2 of 3, further chain): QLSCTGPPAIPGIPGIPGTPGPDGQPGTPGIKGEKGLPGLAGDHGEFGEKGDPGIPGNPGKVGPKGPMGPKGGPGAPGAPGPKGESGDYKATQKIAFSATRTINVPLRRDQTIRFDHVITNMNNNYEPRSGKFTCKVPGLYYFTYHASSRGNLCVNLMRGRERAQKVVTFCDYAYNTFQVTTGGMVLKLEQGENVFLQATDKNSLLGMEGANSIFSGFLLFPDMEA
Chain of C1q (Homo sapiens) (P02747 29-245, chain 3 of 3, further chain): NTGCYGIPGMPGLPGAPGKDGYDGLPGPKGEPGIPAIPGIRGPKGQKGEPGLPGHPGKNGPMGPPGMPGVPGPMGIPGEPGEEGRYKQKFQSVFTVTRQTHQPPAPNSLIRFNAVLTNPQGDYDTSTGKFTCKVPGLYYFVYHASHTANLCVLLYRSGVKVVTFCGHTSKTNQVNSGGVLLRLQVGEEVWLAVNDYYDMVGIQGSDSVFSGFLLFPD

[12] = biological target: TREM2 (19–134) D87N, biotinylated (human) (UniProt Q9NZC2); assay: BLI; biotinylated TREM2 WT or variant immobilised on streptavidin (SA) biosensors; apoE in solution (apoE4 0.012–50 µM); PBS with 0.1% BSA and 0.005% Tween-20; double-reference subtraction; steady-state analysis
Chain of TREM2 (19–134) D87N, biotinylated (human) (Q9NZC2 19-134 D87N): as the sequence (Q9NZC2 19-134 L75D) above, with D57L, D69N counted along it

Chain of TREM2 (19–134) L71D, biotinylated (human) (Q9NZC2 19-134 L71D): as the sequence (Q9NZC2 19-134 L75D) above, with L53D, D57L counted along it
Chain of TREM2 (Q9NZC2 19-174): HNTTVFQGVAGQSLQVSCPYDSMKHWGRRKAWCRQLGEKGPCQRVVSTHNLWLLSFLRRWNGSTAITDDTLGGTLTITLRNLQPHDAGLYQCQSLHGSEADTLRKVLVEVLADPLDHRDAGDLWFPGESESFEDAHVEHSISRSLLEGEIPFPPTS
Chain of TREM2 (19–134) F74D, biotinylated (human) (Q9NZC2 19-134 F74D): as the sequence (Q9NZC2 19-134 L75D) above, with F56D, D57L counted along it

- Kd [1]: 110 nM
- Kd [2]: 58 nM
- Kd [3]: 110 nM
- Kd [4]: 2540 nM
- Kd [5]: 820 nM
- Kd [6]: 180 nM
- Kd [7]: 1660 nM
- Kd [8]: 13800 nM
- Kd [9]: 110 nM
- Kd [10]: 650 nM
- percent decrease of apoE4 (500 nM) binding to TREM2 after pre-binding 1000 nM C1q [11]: 3%
- percent inhibition of oAβ42 (500 nM) binding to TREM2 after pre-binding 1000 nM C1q [11]: 22%
Substance: Complement C1q (complex)

Substance: TREM2 (from UniProt Q9NZC2)
- Kd (C1q (Homo sapiens)): 7.35 nM

- Kd [12]: 52 nM
Substance: apolipoprotein E2 (from UniProt P02649 19-317) (ligand)

- percent reduction of oAβ42 (500 nM) binding to TREM2 after pre-binding 10 µM apoE4 [11]: 67%
Substance: apolipoprotein E4 (from UniProt P02649 19-317) (ligand)
